Molecular target: aflibercept (Eylea) (human)
Assay: SEC; Superdex 200 Increase 10/300 GL, aflibercept diluted in PBS to 8 mg/ml, 77 ul injected, 25 °C; samples stored 0, 7 or 28 days

Chain of aflibercept (Eylea) (Fc fusion) (chain): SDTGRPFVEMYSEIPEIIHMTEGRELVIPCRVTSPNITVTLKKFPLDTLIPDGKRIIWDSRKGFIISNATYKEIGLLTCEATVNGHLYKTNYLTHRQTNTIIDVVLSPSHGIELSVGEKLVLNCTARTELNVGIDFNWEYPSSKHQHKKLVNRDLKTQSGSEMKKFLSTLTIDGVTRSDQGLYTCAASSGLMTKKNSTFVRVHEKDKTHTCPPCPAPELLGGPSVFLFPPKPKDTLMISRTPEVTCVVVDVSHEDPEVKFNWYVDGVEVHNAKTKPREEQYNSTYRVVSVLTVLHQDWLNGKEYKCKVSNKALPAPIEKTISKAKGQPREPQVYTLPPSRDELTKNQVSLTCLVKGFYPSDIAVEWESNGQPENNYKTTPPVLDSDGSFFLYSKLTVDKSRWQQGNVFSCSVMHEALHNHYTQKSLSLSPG

stoichiometry N: 2
Substance: aflibercept (Eylea) (Fc fusion)

From article PMC5794981
